Experimental findings from patent US20230192818A1 are described below.

Changes are numbered by the printed parent chain.

B1: 13-3 (antibody, V domains shown)
VH: QVQLVESGGGVVQPGRSLRLSCAASGFSFNNHAMHWVRQAPGKGLEWVAVISYDGSDKYYADSVKGRFTISRDNSKNTLYLQMNSLRAEDTAVYYCARNLLRGYGMDVWGQGTLVTVSS
VL: DIQMTQSPSSLSASVGDRVTITCRASQSIGDYLNWYQQKPGKAPKLLIYEASSLQSGVPSRFSGSGSGTDFTLTISSLQPEDFATYYCLHTYLPPYSFGQGTKVEIK
B2: 13-4 (antibody, V domains shown)
VH: QVQLVESGGGVVQPGRSLRLSCAASGFAFDDYAMHWVRQAPGKGLEWVAVISYDGSNKYYADSVKGRFTISRDNSKNTLYLQMNSLRAEDTAVYYCATLGYGDYPDYWGQGTLVTVSS
VL: B1 VL with G30T, D31R, E50A, L89Q, H90Q, L93N, P94F, Y96H, S97T
B3: 13-5 (antibody, V domains shown)
VH: QVQLVESGGGVVQPGRSLRLSCAASGFIFRSYAMHWVRQAPGKGLEWVAVISYDGSSKYYADSVKGRFTISRDNSKNTLYLQMNSLRAEDTAVYYCARPLGGGYQDAFDIWGQGTLVTVSS
VL: EIVLTQSPATLSLSPGERATLSCRASQSIGSYLAWYQQKPGQAPRLLIYDVSNRATGIPARFSGSGSGTDFTLTISSFEPEDFAVYYCQQRHHWPPVTFGGGTKVEIK
B4: 13-1 (antibody, V domains shown)
VH: QVQLVESGGGVVQPGRSLRLSCAASGFTFSSYSMHWVRQAPGKGLEWVAVISYDGRNQYYADSVKGRFTISRDNSKNTLYLQMNSLRAEDTAVYYCAKGYGGNYYYMDGWGQGTLVTVSS
VL: EIVLTQSPATLSLSPGERATLSCRASQSVGDFLAWYQQKPGQAPRLLIYDTSNRATGIPARFSGSGSGTDFTLTISSLEPEDFAVYYCQQRSIRGTFGGGTKVEIK
B5: 12-31 (antibody, V domains shown)
VH: B3 VH with I28T, R30S, S31Y, A33T, I51T, S57N, G103S, Q105F, D106A
VL: EIVLTQSPATLSLSPGERATLSCRASQSIGSYLAWYQQKPGQAPRLLIYDVSNRATGIPARFSGSGSGTDFTLTISSLEPEDFAVYYCQQRDSFTFGGGTKVEIK
B6: 12-34 (antibody, V domains shown)
VH: B3 VH with L100S, G103S, Q105F, A107P, I110Y
VL: B5 VL with I29V, S31N, Y32F, V51A, Q90H, D92R, S93L, F94L
B7: 12-32 (antibody, V domains shown)
VH: QVQLVESGGGVVQPGRSLRLSCAASGFTFGTYAMHWVRQAPGKGLEWVAVISYDGNNKYYADSVKGRFTISRDNSKNTLYLQMNSLRAEDTAVYYCAKTMSGSYFSAFDIWGQGTLVTVSS
VL: B5 VL
B8: 12-43 (antibody, V domains shown)
VH: B3 VH with R30S, A33G, S57N, K58E, L100R, G101S, G103S, Q105L, D106S, I110Y
VL: EIVLTQSPATLSLSPGERATLSCRASQSVGKSLAWYQQKPGQAPRLLIYDTSNRATGIPARFSGSGSGTDFTLTISSLEPEDFAVYYCQQRGSFPLTFGGGTKVEIK
B9: 12-36 (antibody, V domains shown)
VH: QVQLVESGGGVVQPGRSLRLSCAASGFSFNNYGMHWVRQAPGKGLEWVAVISYDGSNDYYADSVKGRFTISRDNSKNTLYLQMNSLRAEDTAVYYCARPNSGSYSNYFDYWGQGTLVTVSS
VL: B8 VL with S28G, V29I, G30S, K31T, S32Y, T51A, G92R, S93R, F94W, L96P
B10: 12-37 (antibody, V domains shown)
VH: QVQLVESGGGVVQPGRSLRFSCAGTGFTFSSYAMHWVRQAPGKGLEWVAVISYDGSNQYYADSVKGRFTISRDNSKNTLYLQMNSLRAEDTAVYYCARSRSGSYLAYFDYWGQGTLVTVSS
VL: B4 VL with V3E, Q27E, G30S, D31E, F32S, T51A, S92T, I93H, R94G, G95V
B11: 12-42 (antibody, V domains shown)
VH: B4 VH with S30G, S33G, R56S, N57H, Q58K, K98R, G99A, Y100L, M107F, G109Y
VL: B4 VL with G30D, D31S, F32R, I93S, R94N, G95W
B12: 12-39 (antibody, V domains shown)
VH: B7 VH with G30S, T31S, N57H, K58E, K98R, T99A, M100H, A107H, I110Y
VL: EIVLTQSPATLSLSPGERATLSCRASESISTYLAWYQQKPGQAPRLLIYDASNRATGIPARFSGSGSGTDFTLTISSLEPEDLAVYYCQQRRNSLTFGGGTKVEIK

The first assay deals with biotinylated SARS-CoV-2 S1 variant P.1 (Example 5) (SARS-CoV-2) (UniProt P0DTC2). In words: phage ELISA screening.
The molecule B1 yielded an ELISA of 19.5.

Take B2: the ELISA was 18.9. B3 had an ELISA of 10.3. As for B4, the ELISA was found to be 22.2.

For the next assay, the target named is biotinylated SARS-CoV-2 S1 variant B.1.351 (Example 5) (SARS-CoV-2) (UniProt P0DTC2). In words: phage ELISA screening.
B5 gave an ELISA of 7.01.

Take B6: the ELISA is 5.81. The same measure, in the same setting: then B7, with 6.88; and B8, with 4.82.

Take B9: the ELISA is 5.51. As for B10, the ELISA came to 5.5. On to B11, for which the ELISA is 4.93. B12: the ELISA amounted to 5.09.
